# Data as given in patent US20070087405.
# B1: α subunit of human prolyl 4-hydroxylase (protein)
# chain: HPGFFTSIGQMTDLIHTEKDLVTSLKDYIKAEEDKLEQIKKWAEKLDRLTSTATKDPEGFVGHPVNAFKLMKRLNTEWSELENLVLKDMSDGFISNLTIQRQYFPNDEDQVGAAKALLRLQDTYNLDTDTISKGNLPGVKHKSFLTAEDCFELGKVAYTEADYYHTELWMEQALRQLDEGEISTIDKVSVLDYLSYAVYQQGDLDKALLLTKKLLELDPEHQRANGNLKYFEYIMAKEKDVNKSASDDQSDQKTTPKKKGVAVDYLPERQKYEMLCRGEGIKMTPRRQKKLFCRYHDGNRNPKFILAPAKQEDEWDKPRIIRFHDIISDAEIEIVKDLAKPRLRRATISNPITGDLETVHYRISKSAWLSGYENPVVSRINMRIQDLTGLDVSTAEELQVANYGVGGQYEPHFDFARKDEPDAFKELGTGNRIATWLFYMSDVSAGGATVFPEVGASVWPKKGTAVFWYNLFASGEGDYSTRHAACPVLVGNKWVSNKWLHERGQEFRRPCTLSELE
# Target: β subunit of human prolyl 4-hydroxylase, P07237
# Sequence (P07237 18-508): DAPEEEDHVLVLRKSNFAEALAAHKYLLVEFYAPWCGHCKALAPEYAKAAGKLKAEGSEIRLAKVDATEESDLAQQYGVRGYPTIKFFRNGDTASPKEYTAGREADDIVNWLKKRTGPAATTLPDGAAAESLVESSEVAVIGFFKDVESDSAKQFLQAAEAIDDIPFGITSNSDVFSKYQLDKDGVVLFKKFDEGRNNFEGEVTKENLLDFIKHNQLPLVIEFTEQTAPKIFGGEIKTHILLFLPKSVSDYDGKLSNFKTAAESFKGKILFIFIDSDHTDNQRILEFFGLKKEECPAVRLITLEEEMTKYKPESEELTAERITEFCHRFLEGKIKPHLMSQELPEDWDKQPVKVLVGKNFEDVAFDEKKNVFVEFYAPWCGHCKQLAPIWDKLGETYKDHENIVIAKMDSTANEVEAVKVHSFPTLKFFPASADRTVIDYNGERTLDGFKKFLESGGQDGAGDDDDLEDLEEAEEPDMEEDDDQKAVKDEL
protein,measurement,value
B1,prolyl 4-hydroxylase activity (decarboxylation of 2-oxo[1-14C]glutarate) and trimeric assembly of mC21,These data suggest that the P4α and P4β are capable of assembling into an active α2β2 tetramer in the Drosophila expression system
